{"source": "patent US20220233638A1", "target": "canine LILRB3 (ENSCAFG00000028453) on normal MDCK cells (dog)", "sequence (chain, as listed by the source limits assumed, form in doubt)": "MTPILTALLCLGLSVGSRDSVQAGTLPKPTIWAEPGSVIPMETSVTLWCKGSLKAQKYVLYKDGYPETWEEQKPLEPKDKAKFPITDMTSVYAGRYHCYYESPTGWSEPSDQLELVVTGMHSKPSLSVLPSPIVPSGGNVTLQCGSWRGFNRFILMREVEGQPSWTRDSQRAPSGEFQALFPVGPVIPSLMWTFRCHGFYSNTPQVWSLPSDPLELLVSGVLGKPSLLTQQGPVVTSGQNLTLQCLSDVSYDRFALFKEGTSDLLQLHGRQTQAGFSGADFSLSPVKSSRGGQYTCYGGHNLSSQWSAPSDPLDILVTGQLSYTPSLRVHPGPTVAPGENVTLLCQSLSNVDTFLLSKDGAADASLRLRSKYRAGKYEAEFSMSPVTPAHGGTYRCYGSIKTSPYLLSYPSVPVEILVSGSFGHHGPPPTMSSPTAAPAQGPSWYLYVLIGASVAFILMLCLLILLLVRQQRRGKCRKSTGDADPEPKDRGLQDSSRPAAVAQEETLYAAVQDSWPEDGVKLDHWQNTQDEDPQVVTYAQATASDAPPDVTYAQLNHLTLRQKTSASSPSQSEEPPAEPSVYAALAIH", "experiment": "cell-based or functional assay"}
{"substance": "recombinant protein DLA88-α3 (from UniProt P18466 207-299) (ligand)", "values": [{"measurement": "residual rate of SCRB^KD (Scribble knockdown) MDCK cells in mixed culture with normal MDCK cells, 24 hr", "result": 20, "unit": "%"}]}
